Measurements: PMC4930482
Values belong to the substance of their own block, whether it stands above or below them.

What was measured:
Experiment in all cases: coIP
RFP-RNF26 = RFP-RNF26 (UniProt Q9BY78); conditions: n = 3; parent: est. 100; read off a plot
HA-RNF26 = HA-RNF26 (UniProt Q9BY78); conditions: n = 3; parent: est. 100; read off a plot
[1] = molecular target: RNF26, wild type (coIP of Figures 5A and 5B) (UniProt Q9BY78); conditions: HEK293T cells; n = 3; parent: est. 100; read off a plot

percent of parent (RFP-RNF26): 14 % Co-IP
Substance: FLAG-EPS15 (from UniProt P42566) UIM*

percent of parent (HA-RNF26): 39 % Co-IP
Substance: GFP-TAX1BP1 (from UniProt Q86VP1) UBZ2*

percent of parent [1]: 13 % Co-IP
Substance: TOLLIP, wild type (coIP of Figure 5B) (from UniProt Q9H0E2) CUE*
